Data published in paper PMC3230590, “Structure of the Bro1 Domain Protein BROX and Functional Analyses of the ALIX Bro1 Domain in HIV-1 Budding” (PLoS ONE, 2011).

What was measured:
[1] = target: CHMP4B 205-224 (Homo sapiens) (UniProt Q9H444); conditions: cited from earlier work
human BROX(1-401) = target: T1, human BROX(1-401) (human, UniProt Q5VW32 1-401); assay: SPR; Biacore 2000; CM5 chip with amine-coupled anti-GST antibody capturing GST-CHMP4B(205-224) or GST alone from crude E. coli lysates; pure BROX proteins injected in triplicate, 1.5-fold dilution series from 400 µM; equilibrium responses fit to 1:1 isotherms; conditions: both partners purified
T1 construct: BROX, human, residues 1-401; lacks the 10 C-terminal residues 402-411 with the farnesylated Cys408; Residues of the vector may remain after TEV cleavage (surmise); also called wild type BROX; recombinant human BROX; not shown: His6, N-terminal, cleaved
T1 sequence (looked up): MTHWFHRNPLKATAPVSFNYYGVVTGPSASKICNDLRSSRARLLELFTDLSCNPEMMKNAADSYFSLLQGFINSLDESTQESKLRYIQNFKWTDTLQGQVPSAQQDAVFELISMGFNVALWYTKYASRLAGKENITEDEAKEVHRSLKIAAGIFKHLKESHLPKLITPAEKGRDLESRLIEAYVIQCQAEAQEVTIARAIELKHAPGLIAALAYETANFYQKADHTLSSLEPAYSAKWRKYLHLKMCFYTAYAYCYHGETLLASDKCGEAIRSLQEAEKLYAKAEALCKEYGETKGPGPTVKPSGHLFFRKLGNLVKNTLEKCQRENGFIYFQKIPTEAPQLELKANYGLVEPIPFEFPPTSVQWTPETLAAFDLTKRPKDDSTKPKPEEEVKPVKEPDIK

ALIX Bro1, sequence (Q8WUM4 1-395): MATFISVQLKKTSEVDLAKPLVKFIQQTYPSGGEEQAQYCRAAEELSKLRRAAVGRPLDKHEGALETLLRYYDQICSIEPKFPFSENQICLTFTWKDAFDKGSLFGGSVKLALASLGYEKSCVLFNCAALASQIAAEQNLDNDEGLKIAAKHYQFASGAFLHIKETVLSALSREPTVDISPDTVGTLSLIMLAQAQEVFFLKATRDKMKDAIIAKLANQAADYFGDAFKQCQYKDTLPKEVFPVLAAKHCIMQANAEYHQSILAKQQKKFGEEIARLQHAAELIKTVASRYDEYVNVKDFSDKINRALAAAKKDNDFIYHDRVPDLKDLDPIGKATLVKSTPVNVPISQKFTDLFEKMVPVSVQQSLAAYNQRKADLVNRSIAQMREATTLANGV

| Molecule | Kd [1] | Kd (human BROX(1-401)) |
| --- | --- | --- |
| ALIX Bro1 (from UniProt Q8WUM4) | 48 µM | – |
| KKKEEEDDDMKELENWAGSM (domain or fragment, UniProt Q9H444 205-224, looked up, also called C-terminal fragment from CHMP4B; source: E. coli, captured from crude expression lysates on an anti-GST antibody sensor chip) [GST-CHMP4B(205-224)] | – | 98 ± 22 µM |
